This test addresses endogenous β-catenin (human) (UniProt P35222). Kind of test: cell-based or functional assay.

Among the data in patent US20110009474A1, “SIRTUIN BASED METHODS AND COMPOSITIONS FOR TREATING BETA-CATENIN-RELATED CONDITIONS” (President and Fellows of Harvard College, priority 2007, published 2011) are fold decrease in Super8XTopflash-Luciferase-PEST reporter activity in DLD1 cells values, retold here.

Chain of endogenous β-catenin (human) (P35222 2-781 limits assumed): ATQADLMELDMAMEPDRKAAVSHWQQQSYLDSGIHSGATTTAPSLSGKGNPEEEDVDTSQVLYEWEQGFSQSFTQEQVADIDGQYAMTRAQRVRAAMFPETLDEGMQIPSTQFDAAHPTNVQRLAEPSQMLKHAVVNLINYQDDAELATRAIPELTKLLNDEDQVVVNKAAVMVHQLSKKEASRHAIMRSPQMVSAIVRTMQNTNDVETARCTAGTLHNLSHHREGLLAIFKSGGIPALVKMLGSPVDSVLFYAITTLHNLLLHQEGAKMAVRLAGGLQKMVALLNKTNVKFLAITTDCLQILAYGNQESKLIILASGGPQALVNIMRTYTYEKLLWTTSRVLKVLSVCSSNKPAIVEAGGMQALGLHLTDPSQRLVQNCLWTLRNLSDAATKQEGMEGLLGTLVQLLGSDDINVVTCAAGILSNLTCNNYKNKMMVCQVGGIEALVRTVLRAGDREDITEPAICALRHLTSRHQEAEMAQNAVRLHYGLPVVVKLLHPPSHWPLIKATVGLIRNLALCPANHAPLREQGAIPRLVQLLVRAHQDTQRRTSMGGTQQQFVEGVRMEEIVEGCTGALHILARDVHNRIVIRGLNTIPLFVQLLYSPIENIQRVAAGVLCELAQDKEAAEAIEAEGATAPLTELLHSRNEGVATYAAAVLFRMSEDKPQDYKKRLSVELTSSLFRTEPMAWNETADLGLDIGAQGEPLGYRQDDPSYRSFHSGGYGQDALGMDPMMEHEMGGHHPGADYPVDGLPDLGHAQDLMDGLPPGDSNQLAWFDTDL

As to “SIRT1 overexpressed from pBABE-Puro-hSir2(SIRT1) (from UniProt Q96EB6 2-747)”, the fold decrease in Super8XTopflash-Luciferase-PEST reporter activity in DLD1 cells turned out to be 2 fold.
